Assay results as given in article PMC4434323.

Experiments:
[1] = target: T1, end-3 (F58E10.5) (Caenorhabditis elegans) (UniProt Q9XUW7)
T1 sequence: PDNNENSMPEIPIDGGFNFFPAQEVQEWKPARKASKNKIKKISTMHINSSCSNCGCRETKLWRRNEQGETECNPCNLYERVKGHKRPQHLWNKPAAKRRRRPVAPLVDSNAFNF

[2] = target: T2, end-1 (F58E10.2) (Caenorhabditis elegans) (UniProt G5EDN4)
T2 sequence: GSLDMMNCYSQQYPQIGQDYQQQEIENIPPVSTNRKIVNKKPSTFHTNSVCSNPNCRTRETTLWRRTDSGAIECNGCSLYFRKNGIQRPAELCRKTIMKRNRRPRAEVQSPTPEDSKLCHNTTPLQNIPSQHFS

[3] = target: T3, C27D6.4 (C27D6.4) (Caenorhabditis elegans) (UniProt Q4JFH9)
T3 sequence: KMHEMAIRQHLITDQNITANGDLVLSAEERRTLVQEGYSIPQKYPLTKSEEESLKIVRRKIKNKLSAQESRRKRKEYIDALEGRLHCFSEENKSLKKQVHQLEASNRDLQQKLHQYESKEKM

[4] = target: T4, atf-6 (F45E6.2) (Caenorhabditis elegans) (UniProt Q20435)
T4 sequence: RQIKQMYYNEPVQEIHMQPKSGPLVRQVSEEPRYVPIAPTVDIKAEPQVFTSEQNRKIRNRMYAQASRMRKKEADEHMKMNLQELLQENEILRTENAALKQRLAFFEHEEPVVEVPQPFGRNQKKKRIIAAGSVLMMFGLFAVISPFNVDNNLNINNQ

[5] = target: T5, efl-2 (Y48C3A.17) (Caenorhabditis elegans) (UniProt A5HWA8)
T5 sequence: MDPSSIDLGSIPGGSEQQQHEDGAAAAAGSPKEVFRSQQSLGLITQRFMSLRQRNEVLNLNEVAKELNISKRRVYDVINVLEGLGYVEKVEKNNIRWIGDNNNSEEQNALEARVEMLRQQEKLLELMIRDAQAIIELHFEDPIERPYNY

[6] = target: T6, elt-6 (F52C12.5) (Caenorhabditis elegans) (UniProt G5EGN3)
T6 sequence: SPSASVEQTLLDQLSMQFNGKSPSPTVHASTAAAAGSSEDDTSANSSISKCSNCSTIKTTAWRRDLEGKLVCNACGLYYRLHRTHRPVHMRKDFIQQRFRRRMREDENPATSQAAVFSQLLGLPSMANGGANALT

[7] = target: T7, fkh-9 (K03C7.2) (Caenorhabditis elegans) (UniProt Q21187)
T7 sequence: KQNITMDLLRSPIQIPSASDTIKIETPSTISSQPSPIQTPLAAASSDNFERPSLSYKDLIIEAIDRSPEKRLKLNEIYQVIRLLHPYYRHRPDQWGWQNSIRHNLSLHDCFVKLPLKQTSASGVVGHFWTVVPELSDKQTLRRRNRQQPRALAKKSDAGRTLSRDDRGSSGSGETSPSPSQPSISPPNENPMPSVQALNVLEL

[8] = target: T8, mab-3 (Y53C12B.5) (Caenorhabditis elegans) (UniProt O18214)
T8 sequence: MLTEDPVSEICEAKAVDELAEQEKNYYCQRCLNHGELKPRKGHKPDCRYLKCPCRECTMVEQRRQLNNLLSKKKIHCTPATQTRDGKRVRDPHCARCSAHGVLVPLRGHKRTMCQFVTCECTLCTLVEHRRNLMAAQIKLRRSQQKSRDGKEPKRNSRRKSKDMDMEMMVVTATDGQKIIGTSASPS

[9] = target: T9, T22H9.4 (T22H9.4) (Caenorhabditis elegans) (UniProt Q9TXN8)
T9 sequence: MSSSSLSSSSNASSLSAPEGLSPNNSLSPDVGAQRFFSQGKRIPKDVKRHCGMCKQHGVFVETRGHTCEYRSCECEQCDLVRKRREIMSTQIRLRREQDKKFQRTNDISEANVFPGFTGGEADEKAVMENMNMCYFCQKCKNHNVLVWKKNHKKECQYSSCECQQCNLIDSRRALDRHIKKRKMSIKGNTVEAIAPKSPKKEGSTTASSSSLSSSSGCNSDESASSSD

[10] = system: T10, C34D1.1 (C34D1.1) (Caenorhabditis elegans)
T10 sequence: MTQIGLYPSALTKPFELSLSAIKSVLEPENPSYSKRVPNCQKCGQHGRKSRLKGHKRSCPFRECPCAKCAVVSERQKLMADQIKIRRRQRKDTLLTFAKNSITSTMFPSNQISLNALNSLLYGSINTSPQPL

“AGATAAGA (double strand) [8-mer AGATAAGA]” was tested, and the binding signal (PBM E-score (-0.5 to 0.5)) [1] was 0.496 and the binding signal (PBM E-score (-0.5 to 0.5)) [2] was 0.484.

“CACGTGGC (double strand) [8-mer CACGTGGC]” showed a binding signal (PBM E-score (-0.5 to 0.5)) [3] of 0.499 and a binding signal (PBM E-score (-0.5 to 0.5)) [4] of 0.464.

With “ACGCGCGC (double strand) [8-mer ACGCGCGC]” the binding signal (PBM E-score (-0.5 to 0.5)) [5] was 0.49.

“AGGCGCGC (double strand) [8-mer AGGCGCGC]” was tested, and the binding signal (PBM E-score (-0.5 to 0.5)) [5] was 0.487.

Sequence “GATATCGC (double strand) [8-mer GATATCGC]” has a binding signal (PBM E-score (-0.5 to 0.5)) [2] of 0.487.

“CGCGCGCA (double strand) [8-mer CGCGCGCA]” showed a binding signal (PBM E-score (-0.5 to 0.5)) [5] of 0.491.

Work on “GCGCGCCA (double strand) [8-mer GCGCGCCA]” yielded a binding signal (PBM E-score (-0.5 to 0.5)) [5] of 0.49.

“AGAGATAA (double strand) [8-mer AGAGATAA]” gave a binding signal (PBM E-score (-0.5 to 0.5)) [1] of 0.492.

In the case of “GCTTATCA (double strand) [8-mer GCTTATCA]”, the binding signal (PBM E-score (-0.5 to 0.5)) [6] is reported as 0.493.

With “ACGTGGCC (double strand) [8-mer ACGTGGCC]” the binding signal (PBM E-score (-0.5 to 0.5)) [4] was 0.471.

“AAAAACAA (double strand) [8-mer AAAAACAA]” gave a binding signal (PBM E-score (-0.5 to 0.5)) [7] of 0.49.

“ATCTTATC (double strand) [8-mer ATCTTATC]” gave a binding signal (PBM E-score (-0.5 to 0.5)) [1] of 0.497 and a binding signal (PBM E-score (-0.5 to 0.5)) [2] of 0.495.

“CCACGTAG (double strand) [8-mer CCACGTAG]” was tested, and the binding signal (PBM E-score (-0.5 to 0.5)) [4] was 0.478.

Work on “AAGATAAG (double strand) [8-mer AAGATAAG]” yielded a binding signal (PBM E-score (-0.5 to 0.5)) [1] of 0.493.

For “CCTTATCG (double strand) [8-mer CCTTATCG]”, the binding signal (PBM E-score (-0.5 to 0.5)) [2] was 0.486.

For “ACGTGGCT (double strand) [8-mer ACGTGGCT]”, the binding signal (PBM E-score (-0.5 to 0.5)) [3] was 0.492 and the binding signal (PBM E-score (-0.5 to 0.5)) [4] was 0.466.

For “GAGATAAC (double strand) [8-mer GAGATAAC]”, the binding signal (PBM E-score (-0.5 to 0.5)) [1] was 0.487.

In the case of “TCATAACA (double strand) [8-mer TCATAACA]”, the binding signal (PBM E-score (-0.5 to 0.5)) [7] is reported as 0.485.

Sequence “AACAACAA (double strand) [8-mer AACAACAA]” has a binding signal (PBM E-score (-0.5 to 0.5)) [7] of 0.487.

“CTTATCTA (double strand) [8-mer CTTATCTA]” showed a binding signal (PBM E-score (-0.5 to 0.5)) [1] of 0.493.

“CGATAACG (double strand) [8-mer CGATAACG]” gave a binding signal (PBM E-score (-0.5 to 0.5)) [2] of 0.483.

Sequence “GATATCGA (double strand) [8-mer GATATCGA]” has a binding signal (PBM E-score (-0.5 to 0.5)) [2] of 0.484.

For “GAGCGCGC (double strand) [8-mer GAGCGCGC]”, the binding signal (PBM E-score (-0.5 to 0.5)) [5] was 0.486.

In the case of “ATCTAATC (double strand) [8-mer ATCTAATC]”, the binding signal (PBM E-score (-0.5 to 0.5)) [2] is reported as 0.487.

Work on “CATAACAA (double strand) [8-mer CATAACAA]” yielded a binding signal (PBM E-score (-0.5 to 0.5)) [7] of 0.486.

In the case of “CCGATATC (double strand) [8-mer CCGATATC]”, the binding signal (PBM E-score (-0.5 to 0.5)) [2] is reported as 0.487.

“ACCCGCGC (double strand) [8-mer ACCCGCGC]” showed a binding signal (PBM E-score (-0.5 to 0.5)) [5] of 0.486.

“CCACGTGG (double strand) [8-mer CCACGTGG]” showed a binding signal (PBM E-score (-0.5 to 0.5)) [3] of 0.499 and a binding signal (PBM E-score (-0.5 to 0.5)) [4] of 0.48.

In the case of “TATCGATA (double strand) [8-mer TATCGATA]”, the binding signal (PBM E-score (-0.5 to 0.5)) [2] is reported as 0.49.

“TGTTGCAA (double strand) [8-mer TGTTGCAA]” gave a binding signal (PBM E-score (-0.5 to 0.5)) [8] of 0.497, a binding signal (PBM E-score (-0.5 to 0.5)) [9] of 0.499 and a binding signal (PBM E-score (-0.5 to 0.5)) [10] of 0.469.

Sequence “GTGATAAC (double strand) [8-mer GTGATAAC]” has a binding signal (PBM E-score (-0.5 to 0.5)) [6] of 0.492.

With “AAAACAAC (double strand) [8-mer AAAACAAC]” the binding signal (PBM E-score (-0.5 to 0.5)) [7] was 0.491.

For “CAAAACAA (double strand) [8-mer CAAAACAA]”, the binding signal (PBM E-score (-0.5 to 0.5)) [7] was 0.494.
